Paper PMC10786891, “Massively parallel profiling of RNA-targeting CRISPR-Cas13d”
Numbering of substitutions follows the chain as printed. Names and notes keep the numbering of the source.

T1: EsCas13d, nuclease-dead (Eubacterium siraeum, UniProt B0MS50, R295A;H300A;R849A;H854A)
T1 sequence: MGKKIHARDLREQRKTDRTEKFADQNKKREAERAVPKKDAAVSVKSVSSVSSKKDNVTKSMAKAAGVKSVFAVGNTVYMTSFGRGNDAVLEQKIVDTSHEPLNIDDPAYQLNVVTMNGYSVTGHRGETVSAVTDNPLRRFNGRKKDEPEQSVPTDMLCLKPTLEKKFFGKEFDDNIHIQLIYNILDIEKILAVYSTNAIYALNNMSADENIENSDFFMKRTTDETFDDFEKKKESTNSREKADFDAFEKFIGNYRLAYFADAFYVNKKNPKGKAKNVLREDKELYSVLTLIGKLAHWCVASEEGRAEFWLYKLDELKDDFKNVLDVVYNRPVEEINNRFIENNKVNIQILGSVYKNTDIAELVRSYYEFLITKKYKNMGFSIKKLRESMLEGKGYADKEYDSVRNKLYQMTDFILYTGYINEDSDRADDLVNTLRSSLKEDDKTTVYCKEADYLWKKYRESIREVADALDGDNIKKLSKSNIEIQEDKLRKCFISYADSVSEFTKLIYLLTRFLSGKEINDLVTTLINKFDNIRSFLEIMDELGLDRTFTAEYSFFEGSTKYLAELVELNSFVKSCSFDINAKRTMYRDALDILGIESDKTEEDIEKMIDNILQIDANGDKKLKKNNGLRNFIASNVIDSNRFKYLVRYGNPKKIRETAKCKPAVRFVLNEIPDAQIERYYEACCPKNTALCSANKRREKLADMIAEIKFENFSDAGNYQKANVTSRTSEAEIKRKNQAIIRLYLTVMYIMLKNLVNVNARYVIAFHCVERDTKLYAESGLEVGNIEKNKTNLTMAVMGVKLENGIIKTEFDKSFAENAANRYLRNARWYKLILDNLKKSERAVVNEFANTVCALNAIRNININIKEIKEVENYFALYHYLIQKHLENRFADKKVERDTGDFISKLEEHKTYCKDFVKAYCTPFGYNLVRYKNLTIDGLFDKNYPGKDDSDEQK

B1: target 1 MT 5'PFS GGA 3'PFS CGG (mixed)
RNA 1: CACCCGUGCAAAAAUGCAGGGGUCUAAAACUGAGCGGAUAACCUCUCUAUGG
RNA 2: GGGAAUGGAUCCACAUCUACGAAUUCGGACCAUAGAGAGGUUAUCCGCUCACGGAGAUCGGAAGAGCACACGU
B2: target 1 MT 5'PFS AGG 3'PFS UCU (mixed)
RNA 1: B1 RNA 1
RNA 2: B1 RNA 2 with G27A, A29G, C52U, G53C, G54U
B3: target 1 MT 5'PFS GUG 3'PFS UCU (mixed)
RNA 1: B1 RNA 1
RNA 2: B1 RNA 2 with G28U, A29G, C52U, G53C, G54U
B4: target 1 MT 5'PFS AGA 3'PFS UUA (mixed)
RNA 1: B1 RNA 1
RNA 2: B1 RNA 2 with G27A, C52U, G53U, G54A
B5: target 1 insC 3' of 17,insU 3' of 4 (mixed)
RNA 1: B1 RNA 1
RNA 2: GGGAAUGGAUCCACAUCUACGAAUUCGUACCAUAGCAGAGGUUAUCCGCUUCACCGAGAUCGGAAGAGCACACGU
B6: target 1 MT 5'PFS CUA 3'PFS UUG (mixed)
RNA 1: B1 RNA 1
RNA 2: B1 RNA 2 with G27C, G28U, C52U, G53U
B7: target 1 MT 5'PFS CAC 3'PFS UCG (mixed)
RNA 1: B1 RNA 1
RNA 2: B1 RNA 2 with G27C, G28A, A29C, C52U, G53C
B8: target 1 MT 5'PFS GGU 3'PFS ACU (mixed)
RNA 1: B1 RNA 1
RNA 2: B1 RNA 2 with A29U, C52A, G53C, G54U
B9: target 1 MT 5'PFS AGG 3'PFS UCG (mixed)
RNA 1: B1 RNA 1
RNA 2: B1 RNA 2 with G27A, A29G, C52U, G53C
B10: target 1 MT 5'PFS UAA 3'PFS CCU (mixed)
RNA 1: B1 RNA 1
RNA 2: B1 RNA 2 with G27U, G28A, G53C, G54U
B11: target 1 MT 5'PFS GUA 3'PFS AUU (mixed)
RNA 1: B1 RNA 1
RNA 2: B1 RNA 2 with G28U, C52A, G53U, G54U
B12: target 1 MT 5'PFS AAU 3'PFS UUG (mixed)
RNA 1: B1 RNA 1
RNA 2: B1 RNA 2 with G27A, G28A, A29U, C52U, G53U
B13: target 1 C6U,G12C (mixed)
RNA 1: B1 RNA 1
RNA 2: B1 RNA 2 with G28U, G40C, C46U, G53C
B14: target 1 MT 5'PFS GUA 3'PFS AUC (mixed)
RNA 1: B1 RNA 1
RNA 2: B1 RNA 2 with G28U, C52A, G53U, G54C
B15: target 1 MT 5'PFS CUU 3'PFS UUA (mixed)
RNA 1: B1 RNA 1
RNA 2: B1 RNA 2 with G27C, G28U, A29U, C52U, G53U, G54A
B16: target 1 MT 5'PFS ACG 3'PFS UCC (mixed)
RNA 1: B1 RNA 1
RNA 2: B1 RNA 2 with G27A, G28C, A29G, C52U, G53C, G54C
B17: target 1 MT 5'PFS ACG 3'PFS UCG (mixed)
RNA 1: B1 RNA 1
RNA 2: B1 RNA 2 with G27A, G28C, A29G, C52U, G53C
B18: target 1 MT 5'PFS AGA 3'PFS UUU (mixed)
RNA 1: B1 RNA 1
RNA 2: B1 RNA 2 with G27A, C52U, G53U, G54U
B19: target 1 MT 5'PFS CAG 3'PFS UAU (mixed)
RNA 1: B1 RNA 1
RNA 2: B1 RNA 2 with G27C, G28A, A29G, C52U, G53A, G54U
B20: target 1 MT 5'PFS GUG 3'PFS UCG (mixed)
RNA 1: B1 RNA 1
RNA 2: B1 RNA 2 with G28U, A29G, C52U, G53C
B21: target 1 MT 5'PFS CUU 3'PFS UUG (mixed)
RNA 1: B1 RNA 1
RNA 2: B1 RNA 2 with G27C, G28U, A29U, C52U, G53U
B22: target 1 MT 5'PFS UAC 3'PFS UUG (mixed)
RNA 1: B1 RNA 1
RNA 2: B1 RNA 2 with G27U, G28A, A29C, C52U, G53U
B23: target 1 MT 5'PFS GUG 3'PFS UCA (mixed)
RNA 1: B1 RNA 1
RNA 2: B1 RNA 2 with G28U, A29G, C52U, G53C, G54A
B24: target 1 MT 5'PFS AGA 3'PFS UUG (mixed)
RNA 1: B1 RNA 1
RNA 2: B1 RNA 2 with G27A, C52U, G53U
B25: target 1 MT 5'PFS GUG 3'PFS UCC (mixed)
RNA 1: B1 RNA 1
RNA 2: B1 RNA 2 with G28U, A29G, C52U, G53C, G54C
B26: target 1 MT 5'PFS ACG 3'PFS UCU (mixed)
RNA 1: B1 RNA 1
RNA 2: B1 RNA 2 with G27A, G28C, A29G, C52U, G53C, G54U
B27: target 1 MT 5'PFS CCU 3'PFS UUA (mixed)
RNA 1: B1 RNA 1
RNA 2: B1 RNA 2 with G27C, G28C, A29U, C52U, G53U, G54A
B28: target 1 MT 5'PFS CCU 3'PFS UUG (mixed)
RNA 1: B1 RNA 1
RNA 2: B1 RNA 2 with G27C, G28C, A29U, C52U, G53U
B29: target 1 insG 3' of 16,insG 3' of 3 (mixed)
RNA 1: B1 RNA 1
RNA 2: B5 RNA 2 with C36A, A37G, U51G
B30: target 1 MT 5'PFS CCU 3'PFS UUC (mixed)
RNA 1: B1 RNA 1
RNA 2: B1 RNA 2 with G27C, G28C, A29U, C52U, G53U, G54C
B31: target 1 MT 5'PFS UUA 3'PFS UGA (mixed)
RNA 1: B1 RNA 1
RNA 2: B1 RNA 2 with G27U, G28U, C52U, G54A
B32: target 1 U8A,U19C (mixed)
RNA 1: B1 RNA 1
RNA 2: B1 RNA 2 with G28U, U33C, U44A, G53C
B33: target 1 insU 3' of 12,insU 3' of 6 (mixed)
RNA 1: B1 RNA 1
RNA 2: B5 RNA 2 with C36A, A37G, G38A, A39G, G41U, G48U, C49G, U50C
B34: target 1 MT 5'PFS GUA 3'PFS AUG (mixed)
RNA 1: B1 RNA 1
RNA 2: B1 RNA 2 with G28U, C52A, G53U
B35: target 1 MT 5'PFS AGA 3'PFS UUC (mixed)
RNA 1: B1 RNA 1
RNA 2: B1 RNA 2 with G27A, C52U, G53U, G54C
B36: target 1 MT 5'PFS CUU 3'PFS UUC (mixed)
RNA 1: B1 RNA 1
RNA 2: B1 RNA 2 with G27C, G28U, A29U, C52U, G53U, G54C
B37: target 1 MT 5'PFS CUA 3'PFS UUC (mixed)
RNA 1: B1 RNA 1
RNA 2: B1 RNA 2 with G27C, G28U, C52U, G53U, G54C
B38: target 1 MT 5'PFS GUA 3'PFS AUA (mixed)
RNA 1: B1 RNA 1
RNA 2: B1 RNA 2 with G28U, C52A, G53U, G54A
B39: target 1 MT 5'PFS CAC 3'PFS UCC (mixed)
RNA 1: B1 RNA 1
RNA 2: B1 RNA 2 with G27C, G28A, A29C, C52U, G53C, G54C
B40: target 1 MT 5'PFS CAG 3'PFS UAC (mixed)
RNA 1: B1 RNA 1
RNA 2: B1 RNA 2 with G27C, G28A, A29G, C52U, G53A, G54C

Biological target: T1, EsCas13d, nuclease-dead
Assay: crRNA (strand 1, pre-loaded); Mg2+; 40 mM Tris-HCl pH 7.5, 150 mM NaCl, 6 mM MgCl2, 1 mM DTT, 0.1% Tween-20, 0.2 mg/ml BSA; 25 C; 10 min per concentration, then washed
Conditions: tags: His6-TwinStrep-SUMO cleaved; N-terminal SNAP kept (SNAP-Surface 488); label: 3' end held by stalled T7 RNA polymerase

In order of falling Kd:
1. B31  100 ± 40 nM
2. B12  72 ± 26 nM
3. B8  ~63 nM
4. B32  56 ± 9 nM
5. B19  51.5 ± 21 nM
6. B9  51 ± 21 nM
7. B24  50 ± 18 nM
8. B5  46 ± 4 nM
9. B4  42 ± 11 nM
10. B30  32.5 ± 9.5 nM
11. B16  ~31 nM
12. B2  30.5 ± 9 nM
13. B21  29.5 ± 7.5 nM
14. B18  27.5 ± 11 nM
15. B17  24 ± 6 nM
16. B10  22 ± 11 nM
17. B35  ~22 nM
18. B15  20.9 ± 4.25 nM
19. B1  20.6 ± 3.8 nM
20. B39  20.5 ± 6.5 nM
21. B29  16.2 ± 1.1 nM
22. B14  14.8 ± 1.45 nM
23. B23  14.5 ± 1.45 nM
24. B27  14.3 ± 2.75 nM
25. B36  14.2 ± 2.55 nM
26. B38  14.1 ± 1.15 nM
27. B34  14 ± 0.85 nM
28. B11  12.9 ± 1.15 nM
29. B13  12.9 ± 1.1 nM
30. B40  11.9 ± 4 nM
31. B28  11.7 ± 2.5 nM
32. B25  10.9 ± 1.1 nM
33. B20  10.5 ± 0.62 nM
34. B3  10.3 ± 0.7 nM
35. B26  9.65 ± 2.55 nM
36. B33  9.5 ± 0.4 nM
37. B7  8.65 ± 3.7 nM
38. B22  7.55 ± 1.15 nM
39. B37  6.85 ± 2.1 nM
40. B6  5.7 ± 0.65 nM
